Experimental data reported in patent CN116239682A (WUHAN INST OF BIOLOGICAL PRODUCTS CO LTD, dated 2023).

Columns and labels:
[1] = biological target: T1, CV-A4结构蛋白VP1的1号肽段 (VP1前1-15氨基酸) (Coxsackievirus A4); assay: indirect ELISA on coated overlapping VP1 peptides, 7H11E 1μg/ml
T1 construct: Synthetic peptide; also called VP1 1-15
T1 peptide: GDAIADAIQNTVTTT

[2] = biological target: T2, VP1-7A-G (Coxsackievirus A4); assay: indirect ELISA on coated mutant peptide (+ means ELISA positive)
T2 construct: Synthetic single-site mutant peptide; also called VP1 1-15 peptide, position 7 A-G
T2 peptide: GDAIADGIQNTVTTT

[3] = biological target: T3, VP1-8I-G (Coxsackievirus A4); assay: as above
T3 construct: Synthetic single-site mutant peptide; also called VP1 1-15 peptide, position 8 I-G
T3 peptide: GDAIADAGQNTVTTT

[4] = biological target: T4, VP1-9Q-G (Coxsackievirus A4); assay: as above
T4 construct: Synthetic single-site mutant peptide; also called VP1 1-15 peptide, position 9 Q-G
T4 peptide: GDAIADAIGNTVTTT

[5] = biological target: T5, VP1-10N-G (Coxsackievirus A4); assay: as above
T5 construct: Synthetic single-site mutant peptide; also called VP1 1-15 peptide, position 10 N-G
T5 peptide: GDAIADAIQGTVTTT

[6] = biological target: T6, VP1-11T-G (Coxsackievirus A4); assay: as above
T6 construct: Synthetic single-site mutant peptide; also called VP1 1-15 peptide, position 11 T-G
T6 peptide: GDAIADAIQNGVTTT

[7] = biological target: T7, VP1-12V-G (Coxsackievirus A4); assay: as above
T7 construct: Synthetic single-site mutant peptide; also called VP1 1-15 peptide, position 12 V-G
T7 peptide: GDAIADAIQNTGTTT

[8] = biological target: T8, VP1-13T-G (Coxsackievirus A4); assay: as above
T8 construct: Synthetic single-site mutant peptide; also called VP1 1-15 peptide, position 13 T-G
T8 peptide: GDAIADAIQNTVGTT

[9] = biological target: T9, VP1-14T-G (Coxsackievirus A4); assay: as above
T9 construct: Synthetic single-site mutant peptide; also called VP1 1-15 peptide, position 14 T-G
T9 peptide: GDAIADAIQNTVTGT

[10] = biological target: T10, VP1-15T-G (Coxsackievirus A4); assay: as above
T10 construct: Synthetic single-site mutant peptide; also called VP1 1-15 peptide, position 15 T-G
T10 peptide: GDAIADAIQNTVTTG

[11] = biological target: T11, VP1-5A-G (Coxsackievirus A4); assay: as above
T11 construct: Synthetic single-site mutant peptide; also called VP1 1-15 peptide, position 5 A-G
T11 peptide: GDAIGDAIQNTVTTT

[12] = biological target: T12, VP1-2D-G (Coxsackievirus A4); assay: indirect ELISA on coated mutant peptide (- means ELISA negative)
T12 construct: Synthetic single-site mutant peptide; also called VP1 1-15 peptide, position 2 D-G
T12 peptide: GGAIADAIQNTVTTT

[13] = biological target: T13, VP1-3A-G (Coxsackievirus A4); assay: as above
T13 construct: Synthetic single-site mutant peptide; also called VP1 1-15 peptide, position 3 A-G
T13 peptide: GDGIADAIQNTVTTT

[14] = biological target: T14, VP1-4I-G (Coxsackievirus A4); assay: as above
T14 construct: Synthetic single-site mutant peptide; also called VP1 1-15 peptide, position 4 I-G
T14 peptide: GDAGADAIQNTVTTT

[15] = biological target: T15, VP1-6D-G (Coxsackievirus A4); assay: as above
T15 construct: Synthetic single-site mutant peptide; also called VP1 1-15 peptide, position 6 D-G
T15 peptide: GDAIAGAIQNTVTTT

B1: 单克隆抗体7H11E (antibody, V domains shown)
VH: SGPGLVAPSQSLSITCTVSGFSLPSYDVHWVRQPPGKGLEWLGVIWAGGSTHYNSALMSRLSISKDNSKSQVFLKMNSLQTDDTAMYYCAGLRAFAMDYWGQGTSVTVSS
VL: PIVLTQSPAILSVSPGERVSFSCRASQSIGTNIHWYQQGANGSPRLLIKYASESISGIPSRFSGSGSGTDFTLSINSVESEDIADYYCQQSNSWPWTFGGGTKLEIQR
notes: Mouse hybridoma antibody purified from ascites, IgG2b subtype; also called 7H11E单克隆抗体
[1]
  binding result: binds
[2]
  binding result: binds
[3]
  binding result: binds
[4]
  binding result: binds
[5]
  binding result: binds
[6]
  binding result: binds
[7]
  binding result: binds
[8]
  binding result: binds
[9]
  binding result: binds
[10]
  binding result: binds
[11]
  binding result: binds
[12]
  binding result: no binding
[13]
  binding result: no binding
[14]
  binding result: no binding
[15]
  binding result: no binding
